By Kd is commonly meant the concentration at which binding is half-saturated.

The values below come from publication PMC7503162.

Experiment [1] has as its target Low-density lipoprotein receptor-related protein 1 (LRP1), purified from human placenta (human (purified from human placenta)) (UniProt Q07954). As to the kind of experiment: SPR. For orientation: In SPR one partner is held on a chip, and binding of the other changes the refractive index at the surface.
The target of experiment [2] is Recombinant human LRP1 cluster III Fc chimera protein (human). As to the kind of experiment: SPR.
Experiment [3] addresses Recombinant human LRP1 cluster II Fc chimera protein (human). Kind of experiment: SPR.
In experiment [4] the target is Recombinant human LRP1 cluster IV Fc chimera protein (human). As to the kind of experiment: SPR.
Experiment [5] deals with LRP1 (Homo sapiens) (UniProt Q07954). The conditions noted are these: cited from earlier work.
Sequence of LRP1 (Homo sapiens) (Q07954 20-4544): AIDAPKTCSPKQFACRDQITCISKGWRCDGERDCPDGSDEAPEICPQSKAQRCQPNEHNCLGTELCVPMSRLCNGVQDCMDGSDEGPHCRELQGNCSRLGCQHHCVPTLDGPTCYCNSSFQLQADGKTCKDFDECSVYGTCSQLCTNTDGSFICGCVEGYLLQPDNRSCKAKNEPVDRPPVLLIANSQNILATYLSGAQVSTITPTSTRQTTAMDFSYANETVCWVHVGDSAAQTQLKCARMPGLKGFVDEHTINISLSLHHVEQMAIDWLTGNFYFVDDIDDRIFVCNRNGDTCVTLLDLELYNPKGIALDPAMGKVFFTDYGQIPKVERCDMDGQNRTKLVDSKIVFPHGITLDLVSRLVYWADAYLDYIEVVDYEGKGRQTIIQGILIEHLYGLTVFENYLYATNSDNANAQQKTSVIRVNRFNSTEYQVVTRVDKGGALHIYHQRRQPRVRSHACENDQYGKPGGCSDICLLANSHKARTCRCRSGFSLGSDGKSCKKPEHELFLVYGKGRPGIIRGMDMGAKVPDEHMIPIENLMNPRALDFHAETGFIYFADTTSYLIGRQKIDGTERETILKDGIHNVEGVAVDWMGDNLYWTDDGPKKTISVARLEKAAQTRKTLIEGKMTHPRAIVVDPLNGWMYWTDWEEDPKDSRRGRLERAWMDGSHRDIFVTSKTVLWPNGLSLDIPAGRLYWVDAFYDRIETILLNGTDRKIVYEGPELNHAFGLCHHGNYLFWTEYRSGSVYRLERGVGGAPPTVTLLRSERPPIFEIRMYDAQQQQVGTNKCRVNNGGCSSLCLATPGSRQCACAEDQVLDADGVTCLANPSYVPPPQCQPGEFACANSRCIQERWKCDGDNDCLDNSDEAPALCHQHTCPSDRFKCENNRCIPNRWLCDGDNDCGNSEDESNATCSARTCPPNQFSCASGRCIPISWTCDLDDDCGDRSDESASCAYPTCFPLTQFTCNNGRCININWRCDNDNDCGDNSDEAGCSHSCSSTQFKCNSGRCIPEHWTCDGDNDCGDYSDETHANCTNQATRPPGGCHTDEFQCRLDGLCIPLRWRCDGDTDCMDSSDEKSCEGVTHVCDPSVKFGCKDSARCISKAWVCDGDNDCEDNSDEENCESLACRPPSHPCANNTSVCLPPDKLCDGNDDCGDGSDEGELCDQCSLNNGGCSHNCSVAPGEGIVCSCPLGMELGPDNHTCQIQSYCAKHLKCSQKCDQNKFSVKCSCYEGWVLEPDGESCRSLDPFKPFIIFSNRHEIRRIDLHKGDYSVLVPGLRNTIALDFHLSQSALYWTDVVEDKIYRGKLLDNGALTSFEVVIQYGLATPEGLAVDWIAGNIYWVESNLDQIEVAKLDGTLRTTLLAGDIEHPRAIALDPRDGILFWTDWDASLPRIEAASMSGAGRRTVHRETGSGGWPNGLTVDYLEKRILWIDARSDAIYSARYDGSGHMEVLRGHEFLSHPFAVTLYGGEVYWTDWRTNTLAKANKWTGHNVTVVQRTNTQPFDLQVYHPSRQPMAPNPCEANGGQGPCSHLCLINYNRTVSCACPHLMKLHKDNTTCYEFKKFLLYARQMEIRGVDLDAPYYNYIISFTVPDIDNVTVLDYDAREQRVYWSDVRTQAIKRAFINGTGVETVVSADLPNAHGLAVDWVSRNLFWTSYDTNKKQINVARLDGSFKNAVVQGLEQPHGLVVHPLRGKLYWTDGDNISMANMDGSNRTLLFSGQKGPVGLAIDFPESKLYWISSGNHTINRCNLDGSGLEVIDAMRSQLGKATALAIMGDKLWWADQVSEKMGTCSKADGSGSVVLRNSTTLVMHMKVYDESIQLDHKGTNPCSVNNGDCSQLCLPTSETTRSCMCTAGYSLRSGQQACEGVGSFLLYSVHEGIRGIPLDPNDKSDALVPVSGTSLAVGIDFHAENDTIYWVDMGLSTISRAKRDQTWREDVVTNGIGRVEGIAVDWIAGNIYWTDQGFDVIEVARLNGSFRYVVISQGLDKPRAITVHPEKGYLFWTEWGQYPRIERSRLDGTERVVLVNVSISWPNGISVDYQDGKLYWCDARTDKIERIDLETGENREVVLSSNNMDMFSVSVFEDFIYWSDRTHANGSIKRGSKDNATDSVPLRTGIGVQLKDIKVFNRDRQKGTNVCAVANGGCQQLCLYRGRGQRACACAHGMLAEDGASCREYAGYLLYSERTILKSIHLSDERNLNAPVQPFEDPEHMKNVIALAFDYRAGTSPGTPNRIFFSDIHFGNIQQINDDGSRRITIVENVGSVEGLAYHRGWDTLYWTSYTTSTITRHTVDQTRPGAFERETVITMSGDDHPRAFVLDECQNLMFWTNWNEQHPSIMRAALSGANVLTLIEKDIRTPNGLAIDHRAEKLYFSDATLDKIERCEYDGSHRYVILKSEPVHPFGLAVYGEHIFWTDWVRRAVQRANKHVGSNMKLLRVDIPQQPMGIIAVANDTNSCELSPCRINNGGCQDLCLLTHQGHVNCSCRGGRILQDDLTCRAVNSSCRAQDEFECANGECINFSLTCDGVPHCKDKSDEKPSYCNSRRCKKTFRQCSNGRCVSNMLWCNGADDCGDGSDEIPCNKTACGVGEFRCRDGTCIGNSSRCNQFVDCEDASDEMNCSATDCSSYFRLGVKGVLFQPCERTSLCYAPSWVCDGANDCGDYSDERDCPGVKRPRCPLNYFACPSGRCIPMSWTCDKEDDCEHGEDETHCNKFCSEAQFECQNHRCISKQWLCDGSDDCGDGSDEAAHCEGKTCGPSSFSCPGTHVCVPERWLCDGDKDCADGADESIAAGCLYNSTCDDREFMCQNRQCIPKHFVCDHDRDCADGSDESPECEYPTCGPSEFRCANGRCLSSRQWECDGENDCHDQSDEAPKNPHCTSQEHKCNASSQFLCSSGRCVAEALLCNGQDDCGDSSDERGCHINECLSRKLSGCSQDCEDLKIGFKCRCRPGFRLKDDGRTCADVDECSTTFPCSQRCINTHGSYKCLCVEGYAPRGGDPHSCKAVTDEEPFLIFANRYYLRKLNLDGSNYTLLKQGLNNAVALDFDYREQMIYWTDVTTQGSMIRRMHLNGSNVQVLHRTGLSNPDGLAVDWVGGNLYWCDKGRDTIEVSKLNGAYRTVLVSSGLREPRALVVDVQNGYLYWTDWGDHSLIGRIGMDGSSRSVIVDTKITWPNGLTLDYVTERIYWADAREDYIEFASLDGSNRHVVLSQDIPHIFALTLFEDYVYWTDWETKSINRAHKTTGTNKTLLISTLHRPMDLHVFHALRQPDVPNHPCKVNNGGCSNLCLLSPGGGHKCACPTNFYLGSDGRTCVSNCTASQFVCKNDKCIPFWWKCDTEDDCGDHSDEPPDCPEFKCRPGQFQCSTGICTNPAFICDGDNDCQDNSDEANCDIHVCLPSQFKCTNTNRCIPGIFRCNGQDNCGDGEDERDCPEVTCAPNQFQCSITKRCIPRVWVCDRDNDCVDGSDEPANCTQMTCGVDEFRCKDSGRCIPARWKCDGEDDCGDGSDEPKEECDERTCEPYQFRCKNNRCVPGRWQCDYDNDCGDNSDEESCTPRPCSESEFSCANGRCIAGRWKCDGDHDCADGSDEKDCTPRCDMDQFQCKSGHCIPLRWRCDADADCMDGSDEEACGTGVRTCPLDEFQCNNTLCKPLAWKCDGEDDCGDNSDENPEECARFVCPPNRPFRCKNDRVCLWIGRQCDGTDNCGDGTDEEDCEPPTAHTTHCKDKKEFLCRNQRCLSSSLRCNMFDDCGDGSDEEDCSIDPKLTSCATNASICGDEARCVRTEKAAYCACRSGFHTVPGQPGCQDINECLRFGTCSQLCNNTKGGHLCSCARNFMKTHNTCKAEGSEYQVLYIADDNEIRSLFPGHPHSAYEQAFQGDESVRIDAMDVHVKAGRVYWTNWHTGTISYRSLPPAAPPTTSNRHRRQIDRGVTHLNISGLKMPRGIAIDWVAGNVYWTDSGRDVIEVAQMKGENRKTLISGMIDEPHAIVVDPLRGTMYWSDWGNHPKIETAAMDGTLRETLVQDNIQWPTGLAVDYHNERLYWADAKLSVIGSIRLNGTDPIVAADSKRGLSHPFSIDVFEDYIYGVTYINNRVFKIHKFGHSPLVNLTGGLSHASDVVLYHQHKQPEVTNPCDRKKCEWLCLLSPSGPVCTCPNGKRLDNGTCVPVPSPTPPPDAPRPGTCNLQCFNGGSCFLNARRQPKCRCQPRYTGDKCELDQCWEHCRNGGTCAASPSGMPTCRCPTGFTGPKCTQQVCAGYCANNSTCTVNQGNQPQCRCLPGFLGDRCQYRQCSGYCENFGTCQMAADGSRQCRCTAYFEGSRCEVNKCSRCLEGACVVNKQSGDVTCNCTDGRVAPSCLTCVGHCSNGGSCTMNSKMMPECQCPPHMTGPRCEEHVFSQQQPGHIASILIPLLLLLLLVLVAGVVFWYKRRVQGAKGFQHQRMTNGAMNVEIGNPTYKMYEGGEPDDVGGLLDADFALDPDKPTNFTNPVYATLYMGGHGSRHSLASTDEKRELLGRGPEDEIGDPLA

Sequence of Low-density lipoprotein receptor-related protein 1 (LRP1), purified from human placenta (human (purified from human placenta)) (Q07954 20-4544): as above
Sequence of Tissue inhibitor of metalloproteases 1 (TIMP-1) (P01033 24-207): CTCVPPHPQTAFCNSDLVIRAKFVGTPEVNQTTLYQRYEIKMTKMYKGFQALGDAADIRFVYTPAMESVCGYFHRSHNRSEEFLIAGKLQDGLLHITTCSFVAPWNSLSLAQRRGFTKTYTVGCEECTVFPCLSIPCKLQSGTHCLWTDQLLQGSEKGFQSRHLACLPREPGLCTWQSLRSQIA

As to Active MMP-1 (enzyme), in experiment [1], the Kd came out at 25 nM; the ka2 (bivalent model, second step) turned out to be 0.0084 s⁻¹; the kd1 (bivalent model, first step) turned out to be 0.017 s⁻¹; the kd2 (bivalent model, second step) worked out at 0.0015 s⁻¹.
As for “MMP-1/TIMP-1 complex (from UniProt P01033 24-207)”, in experiment [2], the Kd worked out at 12 nM; the ka1 (bivalent model, first step) came out at 200000 M⁻¹ s⁻¹; the ka2 (bivalent model, second step) worked out at 0.019 s⁻¹; the kd1 (bivalent model, first step) came out at 0.079 s⁻¹. Moreover, the kd2 (bivalent model, second step) in experiment [2] was 0.00062 s⁻¹. In experiment [1], this substance returned a ka1 (bivalent model, first step) of 93000 M⁻¹ s⁻¹; a ka2 (bivalent model, second step) of 0.012 s⁻¹; a kd1 (bivalent model, first step) of 0.026 s⁻¹; a kd2 (bivalent model, second step) of 2.7e-05 s⁻¹. For the same substance, in experiment [3], the Kd is 27 nM; the ka1 (bivalent model, first step) was determined as 120000 M⁻¹ s⁻¹; the ka2 (bivalent model, second step) was 0.02 s⁻¹; the kd1 (bivalent model, first step) turned out to be 0.077 s⁻¹. Further, the kd2 (bivalent model, second step) in experiment [3] amounted to 0.00085 s⁻¹. For the same substance, in experiment [4], the dissociation constant Kd was found to be 32 nM; the ka1 (bivalent model, first step) is 99000 M⁻¹ s⁻¹; the ka2 (bivalent model, second step) was found to be 0.02 s⁻¹; the kd1 (bivalent model, first step) was determined as 0.064 s⁻¹. Also, the kd2 (bivalent model, second step) in experiment [4] stood at 0.001 s⁻¹.
Take “MMP-1/TIMP-3 complex (from UniProt P03956)”: the Kd in experiment [5] is 5 nM.
For the substance “Tissue inhibitor of metalloproteases 1 (TIMP-1) (from UniProt P01033 24-207) (natural protein)”, the Kd was 39 nM in experiment [2], 129 nM in experiment [3] and 391 nM in experiment [4].
Taken in the same sequence, the figures for “Human His-tagged proMMP-1 (from UniProt P03956 20-469) (enzyme)” were 34 nM, 169 nM and 358 nM.
